PMC2953525, “Subtle Alterations in PCNA-Partner Interactions Severely Impair DNA Replication and Repair” (PLoS Biology, 2010)
Residue numbers refer to the chain shown, from its start.

B1: pol30-Rad30E2: PCNA mutant evolved for Rad30, IDCL sequence DDDWDFLKILEL (protein)
chain: MLEAKFEEASLFKRIIDGFKDCVQLVNFQCKEDGIIAQAVDDSRVLLVSLEIGVEAFQEYRCDHPVTLGMDLTSLSKILRCGNNTDTLTLIADNTPDSIILLFEDTKKDRIAEYSLKLMDDDWDFLKILELQYDSTLSLPSSEFSKIVRDLSQLSDSINIMITKETIKFVADGDIGSGSVIIKPFVDMEHPETSIKLEMDQPVDLTFGAKYLLDIIKGSSLSDRVGIRLSSEAPALFQFDLKSGFLQFFLAPKFNDEE
modifications: left off: Gal4 activation domain, end not stated, kept
B2: pol30-Rad30E9: PCNA mutant evolved for Rad30, IDCL sequence DNDWDFLKIDEL (protein)
chain: B1 chain with D121N, L129D
modifications: left off: Gal4 activation domain, end not stated, kept
B3: pol30-Rad27E6: PCNA mutant evolved for Rad27, IDCL sequence DGDYDILKIREL (protein)
chain: B1 chain with D121G, W123Y, F125I, L129R
modifications: left off: Gal4 activation domain, end not stated, kept
B4: pol30-Pol32E9 (protein)
chain: B1 chain with D121N, W123V, F125S, L129I
modifications: left off: Gal4 activation domain, end not stated, kept
B5: pol30-Msh6E6: PCNA mutant evolved for Msh6, IDCL sequence DYDKDLLKIIEL (protein)
chain: B1 chain with D121Y, W123K, F125L, L129I
modifications: left off: Gal4 activation domain, end not stated, kept
B6: pol30-79: previously studied PCNA mutant with decreased partner binding, IDCL sequence DIDADFAKAEEL (protein)
chain: B1 chain with D121I, W123A, L126A, I128A, L129E
modifications: left off: Gal4 activation domain, end not stated, kept
B7: pol30-Msh6E2: PCNA mutant evolved for Msh6, IDCL sequence DYDRDMLKISEL (protein)
chain: B1 chain with D121Y, W123R, F125M, L129S
modifications: left off: Gal4 activation domain, end not stated, kept

test system: Msh6; assay: Yeast two hybrid (Y2H) analysis of PCNA-partner interaction; assay type: binding; settings: YRG2 strain, growth on selective agar plates lacking histidine; growth similar to WT PCNA denoted as 1
Description: (§1) For the Y2H assay, we used the YRG2 host strain, shown to be highly efficient in coupling the strength of protein-protein interactions with growth on media lacking histidine. Selected PCNA mutants were characterized for their ability to bind each of 12 main PCNA partners to obtain specificity profiles (Table 1, Table S1, and Figures S4–S5). […] However, in some cases a strong trade-off between the bindings of different partners was observed.
(§2) Y2H analysis was performed using the Yeast Two Hybrid Phagemid vector kit (Stratagene), following the manufacturer's instructions. The pAD-PCNA-WT/mutant plasmids were used as bait while plasmids encoding 12 different PCNA partners (Table 1 and Table S1) were used as prey. The YRG2 host strain (Stratagene) was cotransformed with pAD-PCNA WT/mutant and pBD-partner plasmids in all possible combinations using the LiAC method. Single transformants were grown in liquid SC-Leu-Trp to O.D600 10, washed twice with DDW, and diluted to an initial OD600 of 0.3. A series of 10-fold serial dilutions was then spotted onto selective SC-Leu-Trp-His plates and incubated at 30°C for 3 d. For quantitative Y2H, the generation time of the indicated mutants and their respective partners were calculated from their growth curves in liquid SC-Leu-Trp-His media. Cells were grown overnight in SC-Leu-Trp, washed twice with ddH2O, and diluted by a factor of 1∶50 into 10 ml of pre-warmed SC-Leu-Trp-His. O.D600 measurements of the cultures were taken at the indicated time; the generation time (τ) was calculated from the growth curves according to the equation ODt = OD0×2^t/τ. The generation time calculated for each culture is an average of at least 3 independent experiments.

Molecule	Binding of PCNA Mutants to Target Partners: Msh6 (Y2H)
POL30: wild-type yeast PCNA (POL30), IDCL sequence DIDADFLKIEEL	1
B1	1
B2	1
B3	1
B4	1

same assay, conditions: footnote c: generation time in liquid selective media lacking histidine relative to cells expressing WT PCNA; average of at least 3 independent experiments

Molecule	Binding of PCNA Mutants to Target Partners: Msh6, fold increase or decrease (quantitative Y2H)
B5	1.4 fold
B6	0.4 ^c fold
B7	1.4 ^c fold

test system: Pol32; assay: as above; assay type: binding; settings: YRG2 strain, growth on selective agar plates lacking histidine; growth similar to WT PCNA denoted as 1
Description: as §1, §2

Molecule	Binding of PCNA Mutants to Target Partners: Pol32 (Y2H)
POL30: wild-type yeast PCNA (POL30), IDCL sequence DIDADFLKIEEL	1
B5	1
B2	1
B3	1
B7	1

same assay, conditions: footnote c: generation time in liquid selective media lacking histidine relative to cells expressing WT PCNA; average of at least 3 independent experiments

Molecule	Binding of PCNA Mutants to Target Partners: Pol32, fold increase or decrease (quantitative Y2H)
B6	0.3 ^c fold
B1	0.4 ^c fold
B4	1.3 fold

test system: Rad27; assay: as above; assay type: binding; settings: YRG2 strain, growth on selective agar plates lacking histidine; growth similar to WT PCNA denoted as 1
Description: as §1, §2

Molecule	Binding of PCNA Mutants to Target Partners: Rad27 (Y2H)
POL30: wild-type yeast PCNA (POL30), IDCL sequence DIDADFLKIEEL	1

same assay, conditions: footnote c: generation time in liquid selective media lacking histidine relative to cells expressing WT PCNA; average of at least 3 independent experiments

Molecule	Binding of PCNA Mutants to Target Partners: Rad27, fold increase or decrease (quantitative Y2H)
B6	0.5 ^c fold
B1	0.4 ^c fold
B2	0.5 ^c fold
B3	1.5 ^c fold

test system: Rad30; assay: as above; assay type: binding; settings: YRG2 strain, growth on selective agar plates lacking histidine; growth similar to WT PCNA denoted as 1
Description: as §1, §2

Molecule	Binding of PCNA Mutants to Target Partners: Rad30 (Y2H)
POL30: wild-type yeast PCNA (POL30), IDCL sequence DIDADFLKIEEL	1
B5	1
B3	1
B4	1
B7	1

same assay, conditions: footnote c: generation time in liquid selective media lacking histidine relative to cells expressing WT PCNA; average of at least 3 independent experiments

Molecule	Binding of PCNA Mutants to Target Partners: Rad30, fold increase or decrease (quantitative Y2H)
B6	0.4 ^c fold
B1	1.4 ^c fold
B2	1.6 fold

test system: Ung1; assay: as above; assay type: binding; settings: YRG2 strain, growth on selective agar plates lacking histidine; growth similar to WT PCNA denoted as 1
Description: as §1, §2

Molecule	Binding of PCNA Mutants to Target Partners: Ung1 (Y2H)
POL30: wild-type yeast PCNA (POL30), IDCL sequence DIDADFLKIEEL	1
B5	1
B1	1
B2	1
B3	1
B4	1
B7	1

same assay, conditions: footnote c: generation time in liquid selective media lacking histidine relative to cells expressing WT PCNA; average of at least 3 independent experiments

Molecule	Binding of PCNA Mutants to Target Partners: Ung1, fold increase or decrease (quantitative Y2H)
B6	0.3 ^c fold

test system: CAN1 gene; assay: Spontaneous mutation rate, CAN1 reporter assay, fluctuation analysis; assay type: cell-based, yeast; settings: Figure 6D
From the text: It was previously shown that PCNA contains another site of regulation (i.e. K164) that is modulated by ubiquitination or SUMOylation (Figure 1B) and that is crucial for the recruitment of TLS polymerases,[37]. To test whether the K164 regulatory site is active in the PCNA mutant strains, we examined the spontaneous mutation rate in these strains (Table 1). Increase in spontaneous mutation rate can indicate the recruitment of TLS polymerases to PCNA through K164 ubiquitination,[37]. Alternatively, these mutants can indirectly affect the spontaneous mutation rate by reducing DNA replication processivity and causing replication fork stalling, thereby leading to TLS recruitment. These mutants can also indirectly alter Pol-δ or Pol-ε proofreading leading to TLS recruitment. We measured the spontaneous mutation rate using the CAN1 reporter assay by monitoring the ability of the PCNA mutant strains to grow in the presence of canavanine, a toxic analogue of arginine. […] To examine whether Polζ, the major TLS polymerase,[37], is recruited in vivo to PCNA mutants showing increased affinity for Rad27 and Pol32 (pol30-Rad27E6 and pol30-Pol32E5, Table 1) upon K164 ubiquitination, we measured the spontaneous mutation rates of these mutant strains on the background of either mutated rev3 encoding the catalytic subunit of Polζ or mutated rad18 encoding the K164 ubiquitin ligase or K164R mutation (Figure 7, Table 2).
Novel haploids containing PCNA mutants were generated using the plasmid shuffling method. Briefly, a pol30::KanMX magic marker heterozygote diploid strain BY4743 (Open Biosystem) was transformed with plasmid pRS316-POL30. Following dissection of the diploid, a haploid containing the CAN+ gene and plasmid pRS316-POL30 as a sole source of PCNA was generated. This host strain was transformed with selected pRS315-pol30 mutants, plated on SC-Ura-Leu plates, followed by replica plating to SC-Leu+5FOA plates. Haploids, containing PCNA mutants as a sole source, were further verified by plating on either SC-Leu or SC-Ura plates. For testing selected PCNA mutants, a haploid containing rad27::HYG, rad30::HYG, pol32::HYG, msh6::HYG, or ung1::HYG were generated using plasmid pAG32 by conventional genetic approaches. Growth of the PCNA mutant strains in the presence of 120 mM HU (Toronto Research Chemicals) or 0.02% MMS (Sigma) was performed as described. To examine the effects of partner overexpression on pol30 mutant strains, these strains were transformed with various plasmids containing GST-tagged PCNA partner encoding genes under the control of a GAL1/10 inducible promoter, as previously described. Overnight cultures were plated in serial dilutions on SC-Ura containing either glucose or galactose with or without DNA-damaging agents, as described above.
The mutation rates for the different pol30 mutant strains described in this study were determined by fluctuation test analysis using the Lea and Coulson method,[48]. The different strains were plated as single colonies on SC-Leu plates and allowed to grow for 3 d at 30°C. At least 25 single colonies from each strain were excised from the plate and resuspended in 1 ml of sterile water to an O.D600 of 0.7. Appropriate dilutions of the cells were then plated on SC-Leu and SC-Leu-Arg+canavanine ([…]) to obtain the number of viable cells (Nt) and the number of canavanine-resistant cells (r), respectively. Using the Lea and Coulson method, the number of mutations (m) per colony was derived from the number of canavanine resistant-colonies (r) across parallel cultures, using the following equation: […]. The m values were then used to calculate the mutation rate, M, using the following equation: M = m/Nt, where Nt is the average number of viable cells per plating. The different M values were sorted to obtain the median. […]

Molecule	effect of msh6 deletion on spontaneous mutation rate
B7	Suppression

same assay, conditions: Table 1; compared to the WT POL30 strain

Molecule	Spontaneous Mutation Rate Can^R (Fold Increase)
B5	4.1 fold
B6	2.2 fold
B1	10 fold
B2	15.3 fold
B3	8 fold
B4	4 fold
B7	7.3 fold

same assay, conditions: Table 2

Molecule	Fold Increase Relative to WT (mutation rate, CAN1 locus)
POL30: wild-type yeast PCNA (POL30), IDCL sequence DIDADFLKIEEL	1 fold

same assay, conditions: Table 2; median, brackets = 95% confidence interval, at least 25 independent determinations

Molecule	Mutation Rate (CAN1 locus)
POL30: wild-type yeast PCNA (POL30), IDCL sequence DIDADFLKIEEL	1.5×10^−7 [1.5, 2.2]
B3	1.2×10^−6 [8.0, 13.9]
